Assay results reported in patent publication US20150072922A1, “RNASE 7 ANTIMICROBIAL PEPTIDES” (THE RESEARCH INSTITUTE AT NATIONWIDE CHILDREN'S HOSPITAL, priority 2012, published 2015).
Entries after “also recorded” stand apart in the source; their conditions may differ.

Tests used:
[1] = test system: Staphylococcus saprophyticus; assay: SYTOX Green bacterial cell death / membrane permeabilization assay; type: cell-based; conditions: 3 hours, FIG. 2, compared to full-length
Procedure: (§1) Assays of the permeabilization of bacterial membrane were performed with SYTOX green nucleic acid stain (Invitrogen™). The overnight cultures of bacteria were centrifuged at 5000 rpm for 5 min, the pellets were then washed with water and resuspended in water with an OD=0.5. 90 μl of each bacteria were then incubated with 10 μl of peptides with different concentrations for 3 hours at 37° C. in a 96-well plate. 100 μl of 2 μM SYTOX Green (Invitrogen™) were then added to each well and incubated in dark for 15 min. SYTOX green penetrates cells with compromised membranes not the membranes of live cells. The increase of fluorescence was measured using […] filters for excitation and emission wavelengths, respectively. Bacteria alone and bacteria treated with 70% ethanol were used as controls and the fluorescence from each was recorded as Fmin and Fmax. The percentage of cell death at each concentration for each fragment was calculated as below: death %=(F−Fmin)/(Finax−Fmin)*100%
(§2) To confirm the accuracy of our MIC/MBC data, cell death assays using SYTOX Green (Invitrogen), which selectivity labels nucleic acids of cells with compromised membranes of dead/dying cells were performed. Overnight cultures of bacteria were centrifuged at 5000 rpm for 5 minutes. Pellets were then washed with PBS (pH 7.4) and resuspended in PBS to an OD600 of 0.5 for Escherichia coli (UTI89) and OD600 of 0.8 for Staphylococcus saprophyticus. Per manufacturerer's instructions, 90 μl of each bacteria strain were incubated with 100 μl of 2 uM SYTOX Green for 15 minutes. Ten microliters of peptides at various concentrations were added for 3 hours at 37° C. in a 96-well plate. Compromised bacterial membranes of dead/dying cells will be labeled while lives cells are not labeled as noted by Invitrogen. Fluorescence was measured using 485 and 520-nm filters for excitation and emission wavelengths, respectively. Untreated bacteria were used as a 100% live control, and fluorescence was noted as Fmin. To elicit complete killing, bacteria were treated with 70% ethanol for 1 hour. This experimental group's fluorescence was noted as Fmax. The percentage of cell death at each concentration for each fragment was calculated as (Ffragment−Fmin)/(Fmax−Fmin)×100%.

Escherichia coli (UTI89) = assay: as above; type: cell-based; conditions: 3 hours, FIG. 1, compared to full-length
Procedure: as §1, §2

[2] = test system: Human primary bladder urothelial cells and renal medullary epithelial cells; assay: Cytotoxic assay; type: cell-based
Procedure: Cytotoxic assay: The urothelial cells that line the bladder and distal nephron epithelial cells are the primary areas of RNase7 protein expression in the kidney and urinary tract. Thus, the cytotoxicity of variant peptides on these epithelia is determined. Human primary bladder urothelial cells (Catalog #4320, ScienCell Research Laboratories, Carlsbad, Calif.) and renal medullary epithelial cells (Catalog # FC-0018, Lifeline Cell Technology, Frederick, Md.) are cultured according to the manufacture's instructions. Cytotoxicity is measured with the Live/Dead Viability/Cytotoxicity Kit for mammalian cells (Catalog number # L3224, Invitrogen/Molecular Probes, Eugene Oreg.) according to the manufacturer's fluorescence microplate protocol and expressed as the percentage of viable cells after treatment with serial two-fold dilutions of RNase 7 and its deletion fragments incubated for 1 hour at 37° C. The results of the cytotoxic assay are reported as the EC50 or the concentration that results in 50% cell death.

[3] = test system: E. Coli, P. aeruginosa and E. faecalis; assay: Atomic Force Microscopy of bacterial morphology; type: cell-based; conditions: twice the MIC, 1×10^9 cfu, FIG. 13
Procedure: (See FIG. 13) 1×10^9 cfu of E. Coli, P. aeruginosa and E. faecalis were incubated with twice the MIC of RNase 7. Ultra-pure water was used as a negative control. AFM imaging was performed with the Multimode AFM instrument (Veeco, Santa Barbara, Calif.) at Ohio State.

[4] = test system: ATCC non-uropathogenic strains; assay: RNase7 antibacterial activity, MIC on laboratory strains; type: cell-based; conditions: ATCC non-uropathogenic strains (N=3 distinct strains)
Description: (§3) Laboratory bacterial strains from the American Type Culture Collection (ATCC, Manassas, Va.) and strains isolated from positive urine cultures were obtained from the Microbiology Laboratory at Nationwide Children's Hospital.

uropathogenic E. coli = assay: RNase7 antibacterial activity, MIC on strains isolated from positive urine cultures; type: cell-based, Escherichia coli; conditions: uropathogenic E. coli isolated from urine cultures (N=3)
Description: as §3

human erythocytes = type: cell-based
Procedure: Hemolytic assay: To determine the hemolytic activity of RNase 7, washed human erythocytes are incubated for 1 hour at 37° C. with a serial two-fold dilution of recombinant RNase 7 and its fragments in pyrogen free saline. After incubation, centrifugation to remove intact erythrocytes and a 10-fold dilution of supernatant, the concentration of released hemoglobin is measured in a micotitre plate reader at 405 nm. (Biochem J. Feb. 15 2008; 410(1):113-122) The peptide concentration that results in 50% hemolysis of erythrocytes will be designated the HC50.

B1: F:1-97: recombinant N-terminal RNase 7 fragment, amino acids 1 to 97 (SEQ ID NO: 5), N-terminal His tag (protein, listed as Homo sapiens)
chain: KPKGMTSSQWFKIQHMQPSPQACNSAMKNINKHTKRCKDLNTFLHEPFSSVAATCQTPKIACKNGDKNCHQSHGPVSLTMCKLTSGKYPNCRYKEKR
modifications: N-terminal His tag
Question: B1 was tested. Which “membrane permeabilization and death, S. saprophyticus (in words)” value [1] did it give?
Answer: increased permeability; also recorded: improved activity compared to full-length; also recorded: increased membrane permeabilization and subsequent death against both strains

Question: What about the “membrane permeabilization and death, E. coli (in words)” value (Escherichia coli (UTI89)) of the same molecule?
Answer: increased permeability; also recorded: improved activity compared to the full-length protein; also recorded: increased membrane permeabilization and subsequent death against both strains

B2: RNase7: recombinant full-length human Ribonuclease 7, amino acids 1-128 (SEQ ID NO: 1), N-terminal His tag (protein, listed as Homo sapiens)
chain: KPKGMTSSQWFKIQHMQPSPQACNSAMKNINKHTKRCKDLNTFLHEPFSSVAATCQTPKIACKNGDKNCHQSHGPVSLTMCKLTSGKYPNCRYKEKRQNKSYVVACKPPQKKDSQQFHLVPVHLDRVL
modifications: N-terminal His tag
Question: Which cytotoxic properties [2] does the source give for B2 here?
Answer: no cytoxic or hemolytic properties

Question: And the “morphological effect on bacteria (AFM)” value [3]?
Answer: direct bacteriocidal effects on multiple microbes

Question: And the “mean inhibitory concentration (MIC)” value [4]?
Answer: 1.3 µM

Question: And the “mean inhibitory concentration (MIC)” value (uropathogenic E. coli)?
Answer: 2.5 µM

Question: What about the hemolytic properties (human erythocytes) of the same molecule?
Answer: no cytoxic or hemolytic properties
